Target: T1, recombinant RABL3 (human, UniProt Q5HYI8 1-236)
T1 sequence (looked up): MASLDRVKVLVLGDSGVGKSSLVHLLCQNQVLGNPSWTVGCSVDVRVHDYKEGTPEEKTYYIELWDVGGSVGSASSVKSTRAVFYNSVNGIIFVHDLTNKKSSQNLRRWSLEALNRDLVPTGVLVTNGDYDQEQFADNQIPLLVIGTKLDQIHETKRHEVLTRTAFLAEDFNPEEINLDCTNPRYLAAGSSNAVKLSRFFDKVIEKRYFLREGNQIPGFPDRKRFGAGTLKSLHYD
Experiment: pull-down

B1: recombinant GST-RAB11A (natural protein, human, UniProt P62491 1-216, looked up)
chain: MGTRDDEYDYLFKVVLIGDSGVGKSNLLSRFTRNEFNLESKSTIGVEFATRSIQVDGKTIKAQIWDTAGQERYRAITSAYYRGAVGALLVYDIAKHLTYENVERWLKELRDHADSNIVIMLVGNKSDLRHLRAVPTDEARAFAEKNGLSFIETSALDSTNVEAAFQTILTEIYRIVSQKQMSDRRENDMSPSNNVVPIHVPPTTENKPKVQCCQNI
Question: Does B1 bind?
Answer: binds

Source: doi:10.1101/2022.03.14.484356 (bioRxiv, 2022)
